This note sets out measurements from patent US20160272694A1 (EDIMER PHARMACEUTICALS, published 2016).

For this test, the target named is T1, Recombinant human IgG1 Fc (hFc) (human, UniProt P01857-1 100-330 = IgG part).
T1 construct: domain: Fc; Bought reagent; also called Recombinant Human IgG Fc
The test can be described thus: sandwich ELISA: hEDAR-mFc coated, anti-human IgG (Fc) CH2-HRP detection. On the procedure: For validation, ELISA plates (96-well Microtiter Plates, Nunc 96F Maxisorp (Thermo Fisher, Pittsburgh, Pa.)) were coated with 1 μg/mL hEDARmFc coating solution. For the binding step, standards, QCs, Blank (assay buffer alone), and other required samples were added to the appropriate wells of an assay plate. Plates were incubated for approximately 120 minutes and then washed. For the detection step, the detection reagent was added to each required well and the plate was incubated for approximately 60 minutes and then washed. For the substrate step, Ultra TMB (1-Step Ultra TMB-ELISA Substrate (Thermo Scientific, Pittsburgh, Pa.)) was added to each well and the plate was incubated for approximately 20 to 30 minutes. Color development was monitored at 650 nm so that development could be discontinued when the OD of the 250 ng/mL standard was between 1.3 and 1.4. To stop the color reaction, 2N sulfuric acid was added to each well. The OD at 450 nm was determined with the correction wavelength set at 540 nm.
(ELISA stands for enzyme-linked immunosorbent assay.)

B1: hEDAR-mFc (Fc fusion, human, UniProt Q9UNE0 27-183, looked up)
chain: EYSNCGENEYYNQTTGLCQECPPCGPGEEPYLSCGYGTKDEDYGCVPCPAEKFSKGGYQICRRHKDCEGFFRATVLTPGDMENDAECGPCLPGYYMLENRPRNIYGMVCYSCLLAPPNTKECVGATSGASANFPGTSGSSTLSPFQHAHKELSGQGH
notes: Capture reagent from Edimer Pharmaceuticals, coated at 1 µg/mL; also called capture reagent; not shown: mouse Fc (mFc)
On to B1, for which the binding result is listed as “no binding (tested: 100 ng/mL)”.
